Data taken from PMC10635571.

Molecular target: hnRNPK (human (endogenous in HeLa)) (UniProt P61978)
Assay: native gel or EMSA; blue native PAGE (4-13%) of the lhCLIP sample: HeLa cells UV-crosslinked, lysate immunoprecipitated with anti-hnRNPK, MNase digestion, pCp-biotin labelling, ligation, eluted from beads at 70°C for 10 min without reducing agents; blotted with anti-hnRNPK antibody

stoichiometry N: 2
Substance: hnRNPK, P61978 1-463 (natural protein; other documents disagree on this pair)
